According to paper PMC7522082, “A simple procedure for bacterial expression and purification of the fragile X protein family”:

Tests used:
[1] = target: T1, His6-MBP-FXR2P P474S and P493N (Homo sapiens, UniProt P51116 1-673, P474S;P493N); experiment: EMSA; 250 nM protein; FA: 20 mM Tris pH 7.5, 75 mM KCl, 5 mM MgCl2, 1 uM BSA, 1 mM DTT, 100 ng/uL tRNA, ~5 nM RNA, RT 1 h; EMSA: 50 mM Tris pH 7.5, 145 mM KCl, 5 mM MgCl2, 1 uM BSA; details: protein: recombinant, tags: N-terminal His6-MBP
His6-MBP-FMRP P451S [2] = target: T2, His6-MBP-FMRP P451S (Homo sapiens, UniProt Q06787 1-632, P451S); experiment: as above
[3] = target: T1, His6-MBP-FXR2P P474S and P493N; experiment: fluorescence anisotropy; 75 mM K+, 5 mM Mg2+; FA: 20 mM Tris pH 7.5, 75 mM KCl, 5 mM MgCl2, 1 uM BSA, 1 mM DTT, 100 ng/uL tRNA, ~5 nM RNA, RT 1 h; EMSA: 50 mM Tris pH 7.5, 145 mM KCl, 5 mM MgCl2, 1 uM BSA; details: protein: recombinant; tags: N-terminal His6-MBP; label: 3' fluorescein; G-quadruplex forming
His6-MBP-FMRP P451S [4] = target: T2, His6-MBP-FMRP P451S; experiment: as above

T1 sequence (P51116 whole entry P474S/P493N): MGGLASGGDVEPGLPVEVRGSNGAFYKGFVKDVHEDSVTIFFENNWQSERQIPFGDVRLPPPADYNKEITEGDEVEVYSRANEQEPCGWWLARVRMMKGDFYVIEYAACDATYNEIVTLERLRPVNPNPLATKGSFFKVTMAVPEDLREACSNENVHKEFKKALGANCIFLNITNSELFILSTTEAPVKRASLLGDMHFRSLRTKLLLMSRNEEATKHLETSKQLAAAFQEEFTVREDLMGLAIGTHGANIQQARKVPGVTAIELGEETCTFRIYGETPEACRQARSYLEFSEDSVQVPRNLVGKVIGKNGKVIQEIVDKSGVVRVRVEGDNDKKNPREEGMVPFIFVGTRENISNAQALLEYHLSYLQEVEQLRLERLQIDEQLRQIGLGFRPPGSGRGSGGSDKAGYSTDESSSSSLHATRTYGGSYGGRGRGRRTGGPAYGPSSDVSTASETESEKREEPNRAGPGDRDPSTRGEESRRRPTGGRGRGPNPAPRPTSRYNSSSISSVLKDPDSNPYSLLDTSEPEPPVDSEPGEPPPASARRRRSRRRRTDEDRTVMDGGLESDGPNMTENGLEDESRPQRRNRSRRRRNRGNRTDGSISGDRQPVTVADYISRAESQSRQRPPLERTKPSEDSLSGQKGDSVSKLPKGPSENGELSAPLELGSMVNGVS

B1: ΔKC2 (structured_RNA)
RNA: GGGCGAAUUCGGGAUUCCGACCAGAAGGGGCUAAGGAAUGGUGGGACGAGCUAGCGGCUGGUAUGUGCGUCU
binding result ([1]; label: 3' fluorescein (FTSC, periodate-oxidized 3' end), loop-loop pseudoknot (kissing complex)): binds | binding result (His6-MBP-FMRP P451S [2]): binds

GCUAUCCAGAUUCUGAUU (ssRNA) [CR1]
binding result ([1]; label: 3' fluorescein, single strand, no predicted G-quadruplex): no binding | binding result (His6-MBP-FMRP P451S [2]): no binding

GGGGGGGGGGGGGGGGGU (structured_RNA) [poly-G17U]
Kd [3]: 3.1 ± 0.4 nM | Kd (His6-MBP-FMRP P451S [4]): 5.6 nM
